{"source": "paper PMC2217671", "substrate": "NCCC[C@H](N)C(=O)O", "assay": "purified protein", "conditions": "200 uM PLP, 12.5 mM DTT, 250 mM Tris pH 7.5, 37 °C, 0.002% BRIJ-35 added, enzyme unstable, low activity", "data": [{"protein": "recombinant E. histolytica putative ornithine decarboxylase (ODC)-like protein (Entamoeba histolytica) (protein) MKQTSLEVKEFALNLISQFEPENQPLGFWIFDTEGVEKAVERWKKNMPTVRPCFAVKCNPEPHLVKLLGELGCGFDCASLNEIKEVLDLGFNPEDITYSQTFKPYNQLIEASHLGINHTIVDSIDEVQKIAKYAPKMGIMIRIMENDTSAGHVFGEKFGLHDDEVEIVLKEIKDKGLNLDGVHFHVGSDSHNSEVFTKALTKARNTVTLAEQFGMKPYLIDIGGGFSQVAPFEEFAATIEKTIKELEFPERTRFIAEPGRYMASNAFHLVSSLHGKRVRIQNGKKQIEYTSGDGLHGSFGCCIWFEKQKSCECITQKVNENTKMYESIIYGPSCNGSDKVATQELPEMEPGKDWLLFPNMGAYTISMATNFNGFEERNHVIYTLPLKSTKIIQIPKSIECNSVPSLNGIPHYA", "values": [{"measurement": "Km", "result": 1500, "unit": "µM"}]}]}
